According to patent US20240368668A1, “SUBSTRATES AND BIOMARKERS OF ADAMTS7” (The Broad Institute, Inc., priority 2021, published 2024):
Square brackets hold non-standard residues; d marks the D form. Ends that are not written are not given here. pGlu = O=C1CC[C@@H](C(=O)O)N1

Target: T1, mouse ADAMTS7 (Mus musculus, UniProt Q68SA9, E373Q)
T1 construct: Full-length mouse Adamts7 1-1857 (Uniprot Q68SA9, WT or E373Q catalytic mutant); expressed in transfected cells; host or cells: Human Coronary Artery Smooth Muscle Cells (HCA-SMC, Lonza), adenovirus 50 MOI
T1 sequence (Q68SA9 221-1657 E373Q): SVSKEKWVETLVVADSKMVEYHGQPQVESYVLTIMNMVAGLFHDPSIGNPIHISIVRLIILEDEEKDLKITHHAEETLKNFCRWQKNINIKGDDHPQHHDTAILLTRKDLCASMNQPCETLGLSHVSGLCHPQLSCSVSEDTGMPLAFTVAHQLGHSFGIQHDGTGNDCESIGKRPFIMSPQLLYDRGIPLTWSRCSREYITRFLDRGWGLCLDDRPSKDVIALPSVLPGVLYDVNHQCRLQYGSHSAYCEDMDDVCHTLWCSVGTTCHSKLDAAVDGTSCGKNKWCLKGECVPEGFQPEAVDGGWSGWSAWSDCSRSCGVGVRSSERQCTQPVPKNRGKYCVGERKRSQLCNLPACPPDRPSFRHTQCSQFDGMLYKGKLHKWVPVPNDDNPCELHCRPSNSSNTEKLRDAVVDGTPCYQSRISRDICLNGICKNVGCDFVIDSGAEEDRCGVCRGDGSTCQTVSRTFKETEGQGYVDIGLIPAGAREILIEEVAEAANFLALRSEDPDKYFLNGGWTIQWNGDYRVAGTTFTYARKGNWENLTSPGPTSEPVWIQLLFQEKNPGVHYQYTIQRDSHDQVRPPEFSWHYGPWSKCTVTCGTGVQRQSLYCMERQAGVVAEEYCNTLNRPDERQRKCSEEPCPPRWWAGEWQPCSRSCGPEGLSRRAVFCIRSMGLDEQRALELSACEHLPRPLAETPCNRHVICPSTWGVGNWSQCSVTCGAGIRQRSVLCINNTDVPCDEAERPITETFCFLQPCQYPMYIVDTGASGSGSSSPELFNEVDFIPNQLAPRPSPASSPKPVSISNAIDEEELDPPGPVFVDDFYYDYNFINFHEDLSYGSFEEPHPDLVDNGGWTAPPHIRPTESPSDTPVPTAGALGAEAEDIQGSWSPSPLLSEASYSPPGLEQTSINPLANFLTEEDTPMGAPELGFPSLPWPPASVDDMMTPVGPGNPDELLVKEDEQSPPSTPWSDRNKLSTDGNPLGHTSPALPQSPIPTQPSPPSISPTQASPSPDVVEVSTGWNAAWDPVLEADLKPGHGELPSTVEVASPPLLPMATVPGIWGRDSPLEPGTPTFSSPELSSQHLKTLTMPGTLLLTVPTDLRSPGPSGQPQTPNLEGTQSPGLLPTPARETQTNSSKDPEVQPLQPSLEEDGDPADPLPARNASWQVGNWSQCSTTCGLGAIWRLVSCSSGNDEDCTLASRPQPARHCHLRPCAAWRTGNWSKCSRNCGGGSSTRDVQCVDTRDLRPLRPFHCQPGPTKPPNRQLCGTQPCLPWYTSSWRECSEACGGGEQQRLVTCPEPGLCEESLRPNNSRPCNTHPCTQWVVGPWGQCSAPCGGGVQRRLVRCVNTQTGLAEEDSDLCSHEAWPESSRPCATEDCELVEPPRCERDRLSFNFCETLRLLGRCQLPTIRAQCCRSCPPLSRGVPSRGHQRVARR
Experiment: TMT10 TAILS N-terminomics, SMC1 experiment (Ad-mADAMTS7 WT vs EQ vs Luc, technical replicates, trypsin digest)
Assay type: cell-based
Settings: TAILS neo-N-terminal peptide abundance; log fold change, Ad-mADAMTS7 EQ over Luc
Procedure, shortened: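 Full-length mouse ADAMTS7 (WT or E373Q mutant, C-terminal 3xFLAG) or luciferase was transduced via adenovirus, 50 MOI, into HCA-SMC (SMC1, SMC2) or HUVEC. SMC1: pooled media, technical triplicates 400 ug; SMC2: process triplicates 300 ug; HUVEC: process triplicates 200 ug, bFGF2 10 ng/ml.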

| Substance | logFC.mEQ.over.Luc |
| --- | --- |
| HLA−C_52 (VDDTQFVR; listed as Homo sapiens) | 0.35 |
| LOX_58 (LSLGSQYQPQR; listed as Homo sapiens) | −0.11 |
| FN1_36 (MVQPQSPVAVSQSKPGCYDNGKHYQINQQWER; listed as Homo sapiens) | 0.39 |
| LTBP2_1584 (SSEVYAQLCNVAR; listed as Homo sapiens) | 0.32 |
| IGFBP3_200 (FSSESKR; listed as Homo sapiens) | −0.09 |
| EFHD2_67 (QGIGEPQSPSR; listed as Homo sapiens) | −0.09 |
| LOX_126 (QAGYSTSR; listed as Homo sapiens) | 0.02 |
| FN1_47 ([code q]SKPGCYD[code n]GKHYQINQQWER; not fully specified; listed as Homo sapiens) | 0.19 |
| FN1_282 (GSGPFTDVR; listed as Homo sapiens) | −0.15 |
| IFI30_43 (YKTGNLYLR; listed as Homo sapiens) | 0.00 |
| ACTB_105 (LTEAPLNPKANR; listed as Homo sapiens) | −0.12 |
| IGFBP3_32 (AGLGPVVR; listed as Homo sapiens) | 0.28 |
| HSPG2_3813 (SSGFIGCVR; listed as Homo sapiens) | −0.28 |
| LOX_81 (NASAQQPR; listed as Homo sapiens) | −0.30 |
| HSPG2_4133 (DGFKGDLCEHEENPCQLR; listed as Homo sapiens) | −0.14 |
| LGALS1_53 (HGDANTIVCNSKDGGAWGTEQR; listed as Homo sapiens) | 0.94 |

| Substance | logFC.mEQ.over.Luc |
| --- | --- |
| LTBP2_1371 (SGQKGHAPCSSVLGR; listed as Homo sapiens) | 0.31 |
| FN1_2217 (FQDTSEYIISCHPVGTDEEPLQFR; listed as Homo sapiens) | 0.14 |
| HSPG2_275 (LLPGSVR; listed as Homo sapiens) | 0.38 |
| LGALS3BP_447 (FQAPSDYR; listed as Homo sapiens) | 0.57 |
| HSPG2_4004 (SAEPLALGR; listed as Homo sapiens) | −0.37 |
| HTRA1_33 (LAAGCPDR; listed as Homo sapiens) | 0.09 |
| FN1_886 (NQESTPVVIQQETTGTPR; listed as Homo sapiens) | 0.49 |
| HSPG2_3647 ([pGlu]GKVKAFAHLQVPER; listed as Homo sapiens) | −0.26 |
| LTBP2_677 (SLGPGTCTLPLAQR; listed as Homo sapiens) | 0.05 |
| FLNA_612 (SVEGPSQAKIECDDKGDGSCDVR; listed as Homo sapiens) | 0.19 |
| LOX_123 (HWFQAGYSTSR; listed as Homo sapiens) | −0.22 |
| ADAM9_69 (VIQAEGKEHIIHLER; listed as Homo sapiens) | −0.10 |
| FN1_45 (VSQSKPGCYDNGKHYQINQQWER; listed as Homo sapiens) | 0.49 |
| FN1_1143 (LTPGVEYVYTIQVLR; listed as Homo sapiens) | 0.00 |
| ECM1_134 (FGDQSHPEPESWNAAQHCQQDR; listed as Homo sapiens) | 0.28 |
